Read-outs that look alike come from different tables or passages of the source. Where only a bound is given, the exact number is not on record here.

Assay in all cases: dot blot: serial dilutions of hLIGHT spotted on PVDF, probed with 5 μg/ml antibody
Test [1] addresses denatured soluble hLIGHT (boiled in 2x SDS sample buffer) (human) (UniProt O43557).
The target of test [2] is soluble FLAG-tagged recombinant hLIGHT (Gly66-Val240 with N-terminal FLAG), native form (human) (UniProt O43557).
The target of test [3] is denatured soluble hLIGHT (boiled in 2x SDS sample buffer) (human) (UniProt O43557). The source holds these as a separate data set.

B1: F19 antibody (produced by hybridoma 124F19, ATCC PTA-7819) (antibody, human IgG1, V domains shown)
VH: QVQLQQWGAGLLKPSETLSLTCAVYGGSFSGYNWHWIRQPPGKGLEWIGEITHSGSTNYNPSLKSRVTISVDTSKNQFSLKLSSVTAADTAVYYCVREIAVAGTGYYGMDVWGQGTTVTVSS
VL: AIQLTQSPSSLSASVGDRVTITCRASRGINSAFAWYQQKPGKAPKLLIYDASSLESGVPSRFSGSGSGTDFTLTISSLQPEDFATYYCQQFNSYPLTFGGGTKVEIK
As to B1, the lowest detection limit (dot blot) in test [1] is above 5000 ng; in test [2] it was 23 ng.

B2: E63 antibody (produced by hybridoma 124E63, ATCC PTA-7818) (antibody, V domains shown)
VH: QVQLQESGPGLVKPSETLSLTCIVSGGSVSSGGYYWSWIRQPPGKGLEWIGYIYYSGSTNYNPSLKSRVTISVDTSKNQFSLKLSSVTAADTAVYYCARWITMFRGVGFDPWGQGTLVTVSS
VL: EIVLTQSPDFQSVTPKEKVTITCRASQSIGSSLHWYQQKPDQSPKLLIKYASQSFSGVPSRFSGSGSGTDFTLTINSLEAEDAAAYYCHQSSSLPLTFGGGTKVEIK
As to B2, the lowest detection limit (dot blot) in test [3] was 139 ng; in test [2], 3.9 ng.

Values taken from patent CN101663321A.
